Tests used:
HeLa Kyoto [1] = test: solubility change mitosis vs G1/S (difference of NP-40 vs SDS log2 ratios) (log2 ratio difference); higher = more soluble in mitosis
HeLa Kyoto [2] = test: thermal stability score vs G1/S (z-score of summed log2 fold changes over temperatures); higher = more thermally stable than in G1/S
HeLa Kyoto [3] = test: solubility in G1/S (NP-40 vs SDS abundance) (log2 ratio); higher = more soluble; conditions: cell cycle stage: G1/S
HeLa Kyoto [4] = test: melting temperature (median over replicates), in situ; higher = more thermally stable
[5] = cell cycle stage: early G1 (4.5 h after nocodazole release)
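Wherever melting temperature (median over replicates), in situ is given: HeLa Kyoto cells synchronized by double thymidine or nocodazole block, proteins quantified by TMT10plex mass spectrometry, three independent biological replicates.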
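Wherever solubility change mitosis vs G1/S (difference of NP-40 vs SDS log2 ratios) is given: synchronized HeLa Kyoto cells (double thymidine block for G1/S, nocodazole release for mitosis), protein amounts in NP-40 versus SDS lysates quantified by mass spectrometry, three biological replicates.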
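Wherever solubility in G1/S (NP-40 vs SDS abundance) is given: HeLa Kyoto cells arrested at G1/S by double thymidine block, proteins quantified by TMT10plex mass spectrometry in mild NP-40 versus SDS extracts, three biological replicates.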
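Wherever thermal stability score vs G1/S (z-score of summed log2 fold changes over temperatures) is given: synchronized HeLa Kyoto cells, proteins quantified by TMT10plex mass spectrometry, three biological replicates, mitosis taken 0.5 h after nocodazole release, G1/S directly after double thymidine block.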

Substance | solubility change mitosis (log2) (HeLa Kyoto [1]) | thermal stability score (HeLa Kyoto [2]; [5]) | thermal stability score (HeLa Kyoto [2]; cell cycle stage: mitosis) | solubility in G1/S (log2) (HeLa Kyoto [3]) | melting temperature (HeLa Kyoto [4]; cell cycle stage: G1/S) [°C] | melting temperature (HeLa Kyoto [4]; cell cycle stage: mitosis) [°C]
MRSAAAAPRSPAVATESRRFAAARWPGWRSLQRPARRSGRGGGGAAPGPYPSAAPPPPGPGPPPSRQSSPPSASDCFGSNGNGGGAFRPGSRRLLGLGGPPRPFVVLLLPLASPGAPPAAPTRASPLGARASPPRSGVSLARPAPGCPRPACEPVYGPLTMSLKPQQQQQQQQQQQQQQQQQQQQQQQPPPAAANVRKPGGSGLLASPAAAPSPSSSSVSSSSATAPSSVVAATSGGGRPGLGRGRNSNKGLPQSTISFDGIYANMRMVHILTSVVGSKCEVQVKNGGIYEGVFKTYSPKCDLVLDAAHEKSTESSSGPKREEIMESILFKCSDFVVVQFKDMDSSYAKRDAFTDSAISAKVNGEHKEKDLEPWDAGELTANEELEALENDVSNGWDPNDMFRYNEENYGVVSTYDSSLSSYTVPLERDNSEEFLKREARANQLAEEIESSAQYKARVALENDDRSEEEKYTAVQRNSSEREGHSINTRENKYIPPGQRNREVISWGSGRQNSPRMGQPGSGSMPSRSTSHTSDFNPNSGSDQRVVNGGVPWPSPCPSPSSRPPSRYQSGPNSLPPRAATPTRPPSRPPSRPSRPPSHPSAHGSPAPVSTMPKRMSSEGPPRMSPKAQRHPRNHRVSAGRGSISSGLEFVSHNPPSEAATPPVARTSPSGGTWSSVVSGVPRLSPKTHRPRSPRQNSIGNTPSGPVLASPQAGIIPTEAVAMPIPAASPTPASPASNRAVTPSSEAKDSRLQDQRQNSPAGNKENIKPNETSPSFSKAENKGISPVVSEHRKQIDDLKKFKNDFRLQPSSTSESMDQLLNKNREGEKSRDLIKDKIEPSAKDSFIENSSSNCTSGSSKPNSPSISPSILSNTEHKRGPEVTSQGVQTSSPACKQEKDDKEEKKDAAEQVRKSTLNPNAKEFNPRSFSQPKPSTTPTSPRPQAQPSPSMVGHQQPTPVYTQPVCFAPNMMYPVPVSPGVQPLYPIPMTPMPVNQAKTYRAVPNMPQQRQDQHHQSAMMHPASAAGPPIAATPPAYSTQYVAYSPQQFPNQPLVQHVPHYQSQHPHVYSPVIQGNARMMAPPTHAQPGLVSSSATQYGAHEQTHAMYACPKLPYNKETSPSFYFAISTGSLAQQYAHPNATLHPHTPHPQPSATPTGQQQSQHGGSHPAPSPVQHHQHQAAQALHLASPQQQSAIYHAGLAPTPPSMTPASNTQSPQNSFPAAQQTVFTIHPSHVQPAYTNPPHMAHVPQAHVQSGMVPSHPTAHAPMMLMTTQPPGGPQAALAQSALQPIPVSTTAHFPYMTHPSVQAHHQQQL [ATXN2] | 0.278 | -0.37 | -1.31 | -0.281 | 52.5 | 51.9
WDR48 | -0.036 | 3.81 | 2.36 | -0.162 | 52.5 | 53.9
MDMLDPGLDPAASATAAAAASHDKGPEAEEGVELQEGGDGPGAEEQTAVAITSVQQAAFGDHNIQYQFRTETNGGQVTYRVVQVTDGQLDGQGDTAGAVSVVSTAAFAGGQQAVTQVGVDGAAQRPGPAAASVPPGPAAPFPLAVIQNPFSNGGSPAAEAVSGEARFAYFPASSVGDTTAVSVQTTDQSLQAGGQFYVMMTPQDVLQTGTQRTIAPRTHPYSPKIDGTRTPRDERRRAQHNEVERRRRDKINNWIVQLSKIIPDCNADNSKTGASKGGILSKACDYIRELRQTNQRMQETFKEAERLQMDNELLRQQIEELKNENALLRAQLQQHNLEMVGEGTRQ [USF2] | 0.142 | -0.00434 | -0.248 | -0.0293 | 54 | 54.6
MAAAGAPDGMEEPGMDTEAETVATEAPARPVNCLEAEAAAGAAAEDSGAARGSLQPAPAQPPGDPAAQASVSNGEDAGGGAGRELVDLKIIWNKTKHDVKFPLDSTGSELKQKIHSITGLPPAMQKVMYKGLVPEDKTLREIKVTSGAKIMVVGSTINDVLAVNTPKDAAQQDAKAEENKKEPLCRQKQHRKVLDKGKPEDVMPSVKGAQERLPTVPLSGMYNKSGGKVRLTFKLEQDQLWIGTKERTEKLPMGSIKNVVSEPIEGHEDYHMMAFQLGPTEASYYWVYWVPTQYVDAIKDTVLGKWQYF [UBFD1] | 0.0325 | -0.222 | -0.699 | 0.522 | 51.5 | 52.1
CCDC88A | -0.1 | -0.404 | 1.05 | 0.124 | 49 | 49
MAPGCKTELRSVTNGQSNQPSNEGDAIKVFVRIRPPAERSGSADGEQNLCLSVLSSTSLRLHSNPEPKTFTFDHVADVDTTQESVFATVAKSIVESCMSGYNGTIFAYGQTGSGKTFTMMGPSESDNFSHNLRGVIPRSFEYLFSLIDREKEKAGAGKSFLCKCSFIEIYNEQIYDLLDSASAGLYLREHIKKGVFVVGAVEQVVTSAAEAYQVLSGGWRNRRVASTSMNRESSRSHAVFTITIESMEKSNEIVNIRTSLLNLVDLAGSERQKDTHAEGMRLKEAGNINRSLSCLGQVITALVDVGNGKQRHVCYRDSKLTFLLRDSLGGNAKTAIIANVHPGSRCFGETLSTLNFAQRAKLIKNKAVVNEDTQGNVSQLQAEVKRLKEQLAELASGQTPPESFLTRDKKKTNYMEYFQEAMLFFKKSEQEKKSLIEKVTQLEDLTLKKEKFIQSNKMIVKFREDQIIRLEKLHKESRGGFLPEEQDRLLSELRNEIQTLREQIEHHPRVAKYAMENHSLREENRRLRLLEPVKRAQEMDAQTIAKLEKAFSEISGMEKSDKNQQGFSPKAQKEPCLFANTEKLKAQLLQIQTELNNSKQEYEEFKELTRKRQLELESELQSLQKANLNLENLLEATKACKRQEVSQLNKIHAETLKIITTPTKAYQLHSRPVPKLSPEMGSFGSLYTQNSSILDNDILNEPVPPEMNEQAFEAISEELRTVQEQMSALQAKLDEEEHKNLKLQQHVDKLEHHSTQMQELFSSERIDWTKQQEELLSQLNVLEKQLQETQTKNDFLKSEVHDLRVVLHSADKELSSVKLEYSSFKTNQEKEFNKLSERHMHVQLQLDNLRLENEKLLESKACLQDSYDNLQEIMKFEIDQLSRNLQNFKKENETLKSDLNNLMELLEAEKERNNKLSLQFEEDKENSSKEILKVLEAVRQEKQKETAKCEQQMAKVQKLEESLLATEKVISSLEKSRDSDKKVVADLMNQIQELRTSVCEKTETIDTLKQELKDINCKYNSALVDREESRVLIKKQEVDILDLKETLRLRILSEDIERDMLCEDLAHATEQLNMLTEASKKHSGLLQSAQEELTKKEALIQELQHKLNQKKEEVEQKKNEYNFKMRQLEHVMDSAAEDPQSPKTPPHFQTHLAKLLETQEQEIEDGRASKTSLEHLVTKLNEDREVKNAEILRMKEQLREMENLRLESQQLIEKNWLLQGQLDDIKRQKENSDQNHPDNQQLKNEQEESIKERLAKSKIVEEMLKMKADLEEVQSALYNKEMECLRMTDEVERTQTLESKAFQEKEQLRSKLEEMYEERERTSQEMEMLRKQVECLAEENGKLVGHQNLHQKIQYVVRLKKENVRLAEETEKLRAENVFLKEKKRSES [KIF15] | -0.0831 | 0.584 | 1.61 | 0.087 | 48.4 | 49.4
MAATASAGAGGIDGKPRTSPKSVKFLFGGLAGMGATVFVQPLDLVKNRMQLSGEGAKTREYKTSFHALTSILKAEGLRGIYTGLSAGLLRQATYTTTRLGIYTVLFERLTGADGTPPGFLLKAVIGMTAGATGAFVGTPAEVALIRMTADGRLPADQRRGYKNVFNALIRITREEGVLTLWRGCIPTMARAVVVNAAQLASYSQSKQFLLDSGYFSDNILCHFCASMISGLVTTAASMPVDIAKTRIQNMRMIDGKPEYKNGLDVLFKVVRYEGFFSLWKGFTPYYARLGPHTVLTFIFLEQMNKAYKRLFLSG [SLC25A11] | -0.187 | -1.46 | -2.54 | -0.0956 | 59.1 | 59.8
MAAAMVPGRSESWERGEPGRPALYFCGSIRGGREDRTLYERIVSRLRRFGTVLTEHVAAAELGARGEEAAGGDRLIHEQDLEWLQQADVVVAEVTQPSLGVGYELGRAVAFNKRILCLFRPQSGRVLSAMIRGAADGSRFQVWDYEEGEVEALLDRYFEADPPGQVAASPDPTT [DNPH1] | 0.00918 | -1.99 | -2.01 | 0.392 | 55.3 | 55.3
MRQKHYLEAAARGLHDSCPGQARYLLWAYTSSHDDKSTFEETCPYCFQLLVLDNSRVRLKPKARLTPKIQKLLNREARNYTLSFKEAKMVKKFKDSKSVLLITCKTCNRTVKHHGKSRSFVSTLKSNPATPTSKLSLKTPERRTANPNHDMSGSKGKSPASVFRTPTSGQSVSTCSSKNTSKTKKHFSQLKMLLSQNESQKIPKVDFRNFLSSLKGGLLK [C18ORF21] | 2.72 | -0.862 | -0.417 | -0.722 |  | 46.8
MGRRSSDTEEESRSKRKKKHRRRSSSSSSSDSRTYSRKKGGRKSRSKSRSWSRDLQPRSHSYDRRRRHRSSSSSSYGSRRKRSRSRSRGRGKSYRVQRSRSKSRTRRSRSRPRLRSHSRSSERSSHRRTRSRSRDRERRKGRDKEKREKEKDKGKDKELHNIKRGESGNIKAGLEHLPPAEQAKARLQLVLEAAAKADEALKAKERNEEEAKRRKEEDQATLVEQVKRVKEIEAIESDSFVQQTFRSSKEVKKSVEPSEVKQATSTSGPASAVADPPSTEKEIDPTSIPTAIKYQDDNSLAHPNLFIEKADAEEKWFKRLIALRQERLMGSPVA [RSRC1] | 0.261 | -1.05 | -4.78 | -0.945 | 51.5 | 50.4
MPSTNRAGSLKDPEIAELFFKEDPEKLFTDLREIGHGSFGAVYFARDVRTNEVVAIKKMSYSGKQSTEKWQDIIKEVKFLQRIKHPNSIEYKGCYLREHTAWLVMEYCLGSASDLLEVHKKPLQEVEIAAITHGALQGLAYLHSHTMIHRDIKAGNILLTEPGQVKLADFGSASMASPANSFVGTPYWMAPEVILAMDEGQYDGKVDVWSLGITCIELAERKPPLFNMNAMSALYHIAQNESPTLQSNEWSDYFRNFVDSCLQKIPQDRPTSEELLKHIFVLRERPETVLIDLIQRTKDAVRELDNLQYRKMKKLLFQEAHNGPAVEAQEEEEEQDHGVGRTGTVNSVGSNQSIPSMSISASSQSSSVNSLPDVSDDKSELDMMEGDHTVMSNSSVIHLKPEEENYREEGDPRTRASDPQSPPQVSRHKSHYRNREHFATIRTASLVTRQMQEHEQDSELREQMSGYKRMRRQHQKQLMTLENKLKAEMDEHRLRLDKDLETQRNNFAAEMEKLIKKHQAAMEKEAKVMSNEEKKFQQHIQAQQKKELNSFLESQKREYKLRKEQLKEELNENQSTPKKEKQEWLSKQKENIQHFQAEEEANLLRRQRQYLELECRRFKRRMLLGRHNLEQDLVREELNKRQTQKDLEHAMLLRQHESMQELEFRHLNTIQKMRCELIRLQHQTELTNQLEYNKRRERELRRKHVMEVRQQPKSLKSKELQIKKQFQDTCKIQTRQYKALRNHLLETTPKSEHKAVLKRLKEEQTRKLAILAEQYDHSINEMLSTQALRLDEAQEAECQVLKMQLQQELELLNAYQSKIKMQAEAQHDRELRELEQRVSLRRALLEQKIEEEMLALQNERTERIRSLLERQAREIEAFDSESMRLGFSNMVLSNLSPEAFSHSYPGASGWSHNPTGGPGPHWGHPMGGPPQAWGHPMQGGPQPWGHPSGPMQGVPRGSSMGVRNSPQALRRTASGGRTEQGMSRSTSVTSQISNGSHMSYT [TAOK1] | -0.0943 | 0.109 | -0.35 | 0.0325 | 51.7 | 50.8
